Consider one molecule from PMC5384801 (mAbs, 2016).

The target of this experiment is trimeric HIV-1 YU-2 gp140 Env (HIV-1 YU-2 (clade B), UniProt P35961, strain). Kind of experiment: ELISA. (In an ELISA, binding on a coated surface is turned into a signal by an enzyme label.)

B1: 8C chimeric mAb (bovine V regions, human IgG1/lambda constant regions) (antibody, V domains shown)
VH: QVQLRESGPSLVKPSQTLSLTCTVSGFSLSRYDVNWVRQAPGKALEWVGVISGDGITGYNPALKSRLSITKDNSKSQLSLSVSSVTPEDTATYYCESWVCVGGRDDVCHSDWGQGLLVTVSS
VL: QAVLTQPTSVSVALGQTAKITCSGDLVDEQYTQWYQQKPGQGPVMVIYKDSERPSGISDRFSGSNSGKTATLTISGAQTEDEADYYCHSADSSHAVFGSGTTLTV
Take B1: the binding result was “no binding”.
